Values quoted from earlier work in article PMC7529620.

Biological target: NCAM/GFRα1 (Homo sapiens) (UniProt P13591)
Chain of UniProt P13591 (P13591 20-718, chain 1 of 2): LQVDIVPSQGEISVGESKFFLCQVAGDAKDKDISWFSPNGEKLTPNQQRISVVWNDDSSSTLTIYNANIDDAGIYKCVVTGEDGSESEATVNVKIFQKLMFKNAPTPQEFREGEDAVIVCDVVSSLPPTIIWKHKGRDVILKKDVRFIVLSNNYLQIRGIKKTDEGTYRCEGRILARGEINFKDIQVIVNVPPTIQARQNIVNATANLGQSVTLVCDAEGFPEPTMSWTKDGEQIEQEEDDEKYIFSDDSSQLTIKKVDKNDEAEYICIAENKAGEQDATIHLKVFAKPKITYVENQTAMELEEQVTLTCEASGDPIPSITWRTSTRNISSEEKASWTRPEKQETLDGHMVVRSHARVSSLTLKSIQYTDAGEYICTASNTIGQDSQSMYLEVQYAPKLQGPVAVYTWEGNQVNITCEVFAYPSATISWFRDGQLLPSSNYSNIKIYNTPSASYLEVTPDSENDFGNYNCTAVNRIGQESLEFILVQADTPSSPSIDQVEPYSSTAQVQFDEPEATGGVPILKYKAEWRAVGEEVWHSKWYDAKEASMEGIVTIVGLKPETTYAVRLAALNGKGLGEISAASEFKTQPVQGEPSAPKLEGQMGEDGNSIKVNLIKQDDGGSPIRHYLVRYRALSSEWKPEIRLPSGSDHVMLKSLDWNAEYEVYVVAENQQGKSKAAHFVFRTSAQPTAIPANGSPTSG
Chain of UniProt P13591 (P56159 25-429, chain 2 of 2, further chain): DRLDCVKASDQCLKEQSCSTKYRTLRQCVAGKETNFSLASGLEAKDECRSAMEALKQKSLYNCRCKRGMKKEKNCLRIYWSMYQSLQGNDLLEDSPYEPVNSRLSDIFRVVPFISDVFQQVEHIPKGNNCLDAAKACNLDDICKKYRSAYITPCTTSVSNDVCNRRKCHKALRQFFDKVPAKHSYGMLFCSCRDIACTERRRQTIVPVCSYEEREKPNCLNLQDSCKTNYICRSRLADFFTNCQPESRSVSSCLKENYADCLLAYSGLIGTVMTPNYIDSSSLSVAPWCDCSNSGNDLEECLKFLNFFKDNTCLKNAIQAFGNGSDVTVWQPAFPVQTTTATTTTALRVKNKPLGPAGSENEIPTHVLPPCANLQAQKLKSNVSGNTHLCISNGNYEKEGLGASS

GDNF (from UniProt P39905)
Kd: 1 nM
